Here are results for 2 substances from publication PMC10495343.

As a reminder, the koff is the rate constant with which the complex falls apart. Higher therefore signals fast dissociation. What is called Kd is a measure of binding affinity in units of concentration. Higher therefore signals lower affinity.

Assay [1] concerns the target collagen I (UniProt P02452). Briefly: SPR. Background: Surface plasmon resonance follows binding to a sensor surface in real time, without labels.
The target of assay [2] is collagen I (UniProt P02452). In words: SPR; Biacore X100; collagen I or collagen III immobilised by amine coupling on a CM5 chip (around 1000 RU); CBD-SA-IL-4 flowed 90 s (collagen I) or 30 s (collagen III) at 30 μl/min; Langmuir 1:1 fit with drifting baseline.
Chain of collagen I (P02452 162-1218, chain 1 of 2): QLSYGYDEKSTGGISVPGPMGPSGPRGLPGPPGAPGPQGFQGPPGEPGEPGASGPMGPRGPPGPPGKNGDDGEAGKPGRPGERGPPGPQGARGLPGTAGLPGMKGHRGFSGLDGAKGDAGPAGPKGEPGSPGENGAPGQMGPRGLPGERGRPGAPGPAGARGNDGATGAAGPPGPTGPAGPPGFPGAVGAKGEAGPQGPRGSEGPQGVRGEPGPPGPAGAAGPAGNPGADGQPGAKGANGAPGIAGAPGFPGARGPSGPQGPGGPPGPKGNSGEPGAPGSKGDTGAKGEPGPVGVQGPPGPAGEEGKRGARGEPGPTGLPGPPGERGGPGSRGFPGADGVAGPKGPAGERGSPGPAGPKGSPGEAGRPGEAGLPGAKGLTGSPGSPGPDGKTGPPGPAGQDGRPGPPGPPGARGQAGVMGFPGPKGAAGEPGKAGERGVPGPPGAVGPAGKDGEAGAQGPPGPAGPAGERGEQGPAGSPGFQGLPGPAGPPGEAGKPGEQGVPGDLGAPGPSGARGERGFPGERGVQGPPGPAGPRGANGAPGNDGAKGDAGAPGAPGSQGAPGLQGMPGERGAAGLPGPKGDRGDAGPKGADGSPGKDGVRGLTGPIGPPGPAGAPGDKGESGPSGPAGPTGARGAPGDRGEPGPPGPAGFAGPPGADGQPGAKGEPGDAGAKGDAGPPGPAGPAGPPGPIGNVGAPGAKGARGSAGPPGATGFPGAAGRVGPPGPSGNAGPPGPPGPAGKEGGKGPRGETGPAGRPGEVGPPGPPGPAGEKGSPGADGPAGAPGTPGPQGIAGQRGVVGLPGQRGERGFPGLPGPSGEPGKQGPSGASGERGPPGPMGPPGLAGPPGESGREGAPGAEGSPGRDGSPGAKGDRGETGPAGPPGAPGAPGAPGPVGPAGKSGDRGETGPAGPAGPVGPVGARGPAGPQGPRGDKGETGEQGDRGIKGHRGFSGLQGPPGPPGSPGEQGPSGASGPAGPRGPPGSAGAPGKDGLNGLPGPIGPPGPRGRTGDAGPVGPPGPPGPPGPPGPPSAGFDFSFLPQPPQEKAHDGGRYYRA
Chain of collagen I (P08123 80-1119, chain 2 of 2, further chain): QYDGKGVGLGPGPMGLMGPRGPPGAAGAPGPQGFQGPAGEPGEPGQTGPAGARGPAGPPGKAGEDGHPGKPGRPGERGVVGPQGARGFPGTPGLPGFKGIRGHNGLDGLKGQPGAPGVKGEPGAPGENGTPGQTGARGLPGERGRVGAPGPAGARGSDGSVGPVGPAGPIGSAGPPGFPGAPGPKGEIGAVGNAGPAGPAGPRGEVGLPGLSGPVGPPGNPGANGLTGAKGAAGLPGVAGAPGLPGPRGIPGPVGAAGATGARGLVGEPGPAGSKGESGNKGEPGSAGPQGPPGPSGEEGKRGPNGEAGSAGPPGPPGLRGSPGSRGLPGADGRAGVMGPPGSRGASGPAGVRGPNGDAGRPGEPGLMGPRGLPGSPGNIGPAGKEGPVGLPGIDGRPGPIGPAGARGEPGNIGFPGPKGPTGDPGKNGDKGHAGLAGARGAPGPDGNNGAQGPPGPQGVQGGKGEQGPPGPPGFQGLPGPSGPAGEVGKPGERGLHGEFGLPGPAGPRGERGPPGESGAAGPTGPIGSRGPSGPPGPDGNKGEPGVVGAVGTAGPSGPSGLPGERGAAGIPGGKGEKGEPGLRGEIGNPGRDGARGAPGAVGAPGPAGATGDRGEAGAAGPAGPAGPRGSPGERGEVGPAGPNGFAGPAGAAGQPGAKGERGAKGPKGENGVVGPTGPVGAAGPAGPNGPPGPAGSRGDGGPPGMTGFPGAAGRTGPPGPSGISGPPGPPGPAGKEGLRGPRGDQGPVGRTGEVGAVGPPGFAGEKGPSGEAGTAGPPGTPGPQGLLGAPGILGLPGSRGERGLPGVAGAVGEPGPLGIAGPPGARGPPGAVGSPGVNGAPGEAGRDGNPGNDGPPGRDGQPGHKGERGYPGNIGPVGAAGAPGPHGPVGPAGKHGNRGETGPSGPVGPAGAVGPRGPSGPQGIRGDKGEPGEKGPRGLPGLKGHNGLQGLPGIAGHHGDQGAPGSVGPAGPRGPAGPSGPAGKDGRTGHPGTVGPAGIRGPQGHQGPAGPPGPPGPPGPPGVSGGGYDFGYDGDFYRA
The target of another assay is collagen III (UniProt P02461). The description is as above.
Chain of collagen III (P02461 154-1221): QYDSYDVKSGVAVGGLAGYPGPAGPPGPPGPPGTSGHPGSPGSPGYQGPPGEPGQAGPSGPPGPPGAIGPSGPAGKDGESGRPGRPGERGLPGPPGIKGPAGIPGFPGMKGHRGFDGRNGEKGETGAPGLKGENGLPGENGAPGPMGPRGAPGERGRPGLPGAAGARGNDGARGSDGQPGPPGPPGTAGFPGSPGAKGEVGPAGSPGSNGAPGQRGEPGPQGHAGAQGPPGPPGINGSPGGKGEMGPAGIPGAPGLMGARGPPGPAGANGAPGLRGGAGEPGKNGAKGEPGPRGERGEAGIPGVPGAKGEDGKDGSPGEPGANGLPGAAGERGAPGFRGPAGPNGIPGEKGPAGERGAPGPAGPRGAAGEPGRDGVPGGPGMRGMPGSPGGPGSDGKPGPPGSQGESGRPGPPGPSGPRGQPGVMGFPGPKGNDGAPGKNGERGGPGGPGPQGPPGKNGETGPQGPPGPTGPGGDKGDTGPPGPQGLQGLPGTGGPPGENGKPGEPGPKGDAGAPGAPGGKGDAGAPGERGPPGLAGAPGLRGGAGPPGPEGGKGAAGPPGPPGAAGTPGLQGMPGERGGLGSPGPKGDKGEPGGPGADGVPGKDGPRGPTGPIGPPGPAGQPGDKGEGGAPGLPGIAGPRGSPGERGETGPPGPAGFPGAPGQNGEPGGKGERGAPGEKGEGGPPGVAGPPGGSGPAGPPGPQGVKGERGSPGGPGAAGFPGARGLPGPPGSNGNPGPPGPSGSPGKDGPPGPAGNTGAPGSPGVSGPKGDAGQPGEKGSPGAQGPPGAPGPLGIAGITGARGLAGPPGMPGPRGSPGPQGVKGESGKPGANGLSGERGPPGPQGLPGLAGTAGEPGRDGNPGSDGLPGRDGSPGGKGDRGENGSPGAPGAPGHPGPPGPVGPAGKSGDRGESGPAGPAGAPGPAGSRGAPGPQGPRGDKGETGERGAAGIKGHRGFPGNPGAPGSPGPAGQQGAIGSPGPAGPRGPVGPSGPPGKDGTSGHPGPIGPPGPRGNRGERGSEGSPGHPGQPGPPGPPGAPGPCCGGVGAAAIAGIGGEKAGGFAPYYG

In the assay with collagen I [1], “collagen-binding, serum albumin-fused IL-4 variant (CBD-SA-IL-4) (from UniProt P04275)” registered a koff of 0.0026 s⁻¹.

Regarding “collagen-binding, serum albumin-fused IL-4 variant (CBD-SA-IL-4)”, the dissociation constant Kd in the assay with collagen I [2] worked out at 8 nM; in the assay with collagen III it was 37 nM.
